# Measurements published in publication PMC5218472 (PLoS Biology, 2017).
# B1: PV: wild-type human IL-6R, cleavage site Pro-355/Val-356 (protein)
# chain: LAPRRCPAQEVARGVLTSLPGDSVTLTCPGVEPEDNATVHWVLRKPAAGSHPSRWAGMGRRLLLRSVQLHDSGNYSCYRAGRPAGTVHLLVDVPPEEPQLSCFRKSPLSNVVCEWGPRSTPSLTTKAVLLVRKFQNSPAEDFQEPCQYSQESQKFSCQLAVPEGDSSFYIVSMCVASSVGSKFSKTQTFQGCGILQPDPPANITVTAVARNPRWLSVTWQDPHSWNSSFYRLRFELRYRAERSKTFTTWMVKDLQHHCVIHDAWSGLRHVVQLRAQEEFGQGEWSEWSPEAMGTPWTESRSPPAENEVSTPMQALTTNKDDDNILFRDSANATSLPVQDSSSVPLPTFLVAGGSLAFGTLLCIAIVLRFKKTWKLRALKEGKTSMHPPYSLGQLVPERPRPTPVLVPLISPPVSPSSLGSDNTSSHNRPDARDPRSPYDISNTDYFFPR
# modifications: N-linked glycans at Asn-55, Asn-93, Asn-221, Asn-245 and Asn-350, O-linked glycan at Thr-352 (mapped on sIL-6R shed from transfected HEK293 cells)
# System: Ba/F3-gp130-hIL-6R and Ba/F3-gp130-hIL-6R-4N cells
# Assay: IL-6R internalization assay (cell-surface turnover, flow cytometry)
# Assay type: cell-based
# Settings: for IL-6R remaining at the cell surface (0 min = 100), mean: mean of 3
# Description: Fig 6 N- and O-linked glycosylation are dispensable for intracellular transport and signaling of the IL-6R. (A–G) Equal numbers of Ba/F3-gp130 cells were incubated for 48 h with increasing amounts (0–100 ng/ml) of either IL-6 or Hyper-IL-6. The stably transduced IL-6R variant is indicated above the diagram. One representative experiment out of three performed is shown (mean ± SD, biological triplicates). (H) Equal numbers of Ba/F3-gp130-hIL-6R and Ba/F3-gp130-hIL-6R-4N cells were labeled with an anti-IL-6R antibody and incubated at 37°C for the indicated time periods. The remaining cell-surface expression of the IL-6R was analyzed via flow cytometry. Data shown are the mean ± SD from three independent experiments.
# In order to analyze internalization of the IL-6R, 1 x 10^7 cells were washed in PBS, seeded onto a 10 cm dish in serum-free DMEM, and starved for 2 h at 37°C. Afterwards, cells were again washed with PBS, and the IL-6R was labeled with the 4–11 antibody diluted in FACS buffer (1% BSA in PBS). After 1 h incubation on ice, cells were washed and resuspended in 10 ml serum-free DMEM, seeded onto a 10 cm dish, and shifted back to 37°C. At the time points indicated (0–180 min), 1 ml of the cell suspension was taken from the dish, transferred into a 1.5 ml reaction tube, and kept on ice to inhibit further internalization of the IL-6R. After obtaining the last sample, the cells were washed in cold FACS buffer, and the remaining IL-6R on the cell surface was stained with an APC-conjugated anti-mouse mAb. The cells were washed again and analyzed by flow cytometry using the BD Biosciences FACS Canto II (Becton-Dickinson, Heidelberg, Germany).
molecule,measurement,setting,value
B1,"IL-6R remaining at the cell surface (0 min = 100), mean","block 1 (wt), 15 min",79.6667
same,"IL-6R remaining at the cell surface (0 min = 100), mean","block 1 (wt), 30 min",59
same,"IL-6R remaining at the cell surface (0 min = 100), mean","block 1 (wt), 60 min",46
same,"IL-6R remaining at the cell surface (0 min = 100), mean","block 1 (wt), 90 min",35
same,"IL-6R remaining at the cell surface (0 min = 100), mean","block 1 (wt), 120 min",23.6667
same,"IL-6R remaining at the cell surface (0 min = 100), mean","block 1 (wt), 150 min",16.6667
same,"IL-6R remaining at the cell surface (0 min = 100), mean","block 1 (wt), 180 min",13.3333
same,"IL-6R remaining at the cell surface (0 min = 100), mean","block 2, 15 min",85.6667
same,"IL-6R remaining at the cell surface (0 min = 100), mean","block 2, 30 min",65
same,"IL-6R remaining at the cell surface (0 min = 100), mean","block 2, 60 min",49.3333
same,"IL-6R remaining at the cell surface (0 min = 100), mean","block 2, 90 min",45
same,"IL-6R remaining at the cell surface (0 min = 100), mean","block 2, 120 min",35.6667
same,"IL-6R remaining at the cell surface (0 min = 100), mean","block 2, 150 min",27.6667
same,"IL-6R remaining at the cell surface (0 min = 100), mean","block 2, 180 min",24.3333
same,t1/2 of IL-6R at the cell surface,"pulse-chase with 4-11 antibody, 37°C, flow cytometry, mean ± SD, n = 3",44.1 ± 8.1 min
